1 molecule from patent CN111471109A (SHENZHEN INST OF ADV TECH CAS, dated 2020) can be followed below.

In the assay the target is T1, FGFR4蛋白 (成纤维细胞生长因子受体4, recombinant protein antigen bought from 义翘神州 / Sino Biological) (human, UniProt P22455 22-369, limits assumed).
T1 construct: In the Western blot the protein was boiled and denatured; also called FGFR4蛋白抗原; fibroblast growth factor receptor 4
T1 sequence (looked up): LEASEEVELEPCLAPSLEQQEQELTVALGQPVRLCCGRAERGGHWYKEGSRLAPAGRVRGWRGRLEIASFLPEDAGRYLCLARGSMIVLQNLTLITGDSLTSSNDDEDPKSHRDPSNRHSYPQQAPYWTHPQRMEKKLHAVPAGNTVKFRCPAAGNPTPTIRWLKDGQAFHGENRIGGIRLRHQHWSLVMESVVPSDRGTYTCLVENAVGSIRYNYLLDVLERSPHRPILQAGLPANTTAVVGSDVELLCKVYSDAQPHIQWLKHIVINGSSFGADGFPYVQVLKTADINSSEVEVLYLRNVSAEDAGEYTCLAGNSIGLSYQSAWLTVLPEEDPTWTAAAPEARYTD
As to the kind of experiment: BLI (OCTET K2), FGFR4 protein 10 μg/ml loaded on AHC (Anti-hIgG Fc Capture) sensors, 6G12F5 in solution at 8.84-566.7 nM.

B1: 6G12F5抗体 (抗FGFR4的单克隆抗体6G12F5) (antibody, V domains shown)
VH: EVMLVESGGGLVKPGGSLKLSCAVSGFTFRNYAMSWVRQSPEKRLEWVAEISNGGRYIYYPDTVTGRFTISRDNAKNTLYLEMSSLRSEDTAMYYCVRGGEKTSGYVWFAYWGEGTLVTVG
VL: DIQMTQTPASLSASVEETVTITCRASENIYSYLAWYQQKQGRSPQLLLYNAKTLAEGVPSRFSGSGSGTQFSLKINSLQPEDFGIYYCQHFSGTPYTFGEGTKLEIT
notes: Mouse hybridoma monoclonal antibody (BALB/c), purified from ascites on Protein G and detected with anti-mouse IgG; also called FGFR4单克隆抗体; FGFR4抗体
On to B1, for which the Kd (commonly the free concentration of one partner at which half of the binding sites on the other are occupied at equilibrium, for simple one-to-one binding) is under 1 pM.
